Data reported in patent US20230272054A1, “COMBINATION THERAPIES FOR THE TREATMENT AND PREVENTION OF BIOFILMS” (priority 2020, published 2023).

Key:
[1] = system: HJ DNA; assay: Stabilization of HJ DNA at RT or 55° C, non-denaturing PAGE; format: binding; conditions: 32P HJ DNA, 25-500 nM protein, RT, 10 min
Method: 5′ end-labeled ^32P HJ DNA was incubated with increasing concentrations (25-500 nM) of IHF (FIG. 8A), rHMGB1 (FIG. 8B) or RuvA (FIG. 8C) either at room temperature (RT) or at 55° C. for 10 min, then resolved on a 6% non-denaturing PAGE. Asterisk indicates melted oligos and arrows indicate DNA-protein complex. […] This outcome contrasts with that observed with both IHF and the prototypic HJ DNA binding protein, RuvA.
To test the hypothesis, HJ DNA was incubated with either HMGB1, the DNABII protein IHF, or the prototypic HJ DNA binding protein, RuvA at room temperature (RT) or 55° C. (melting temperature of HJ DNA) and resolved the complexes by non-denaturing polyacrylamide gel electrophoresis (PAGE). […] (FIG. 8) as indicated by the decrease in abundance of the shifted HJ DNA-HMGB1 complex (arrow) and the concomitant increase in the constituent melted oligos (asterisk).
Electrophoretic mobility shift assay (EMSA): EMSA was performed as previously described (Devaraj et al., 2019).

[2] = system: UPEC biofilms; assay: Disruption of 24 h UPEC biofilms in vitro (CLSM, COMSTAT average thickness); conditions: 24 h UPEC biofilms, 200 nM protein, 16 h
[3] = system: K. pneumoniae biofilms; assay: Disruption of 24 h K. pneumoniae biofilms in vitro (CLSM, COMSTAT average thickness); conditions: 24 h biofilms, 200 nM protein, 16 h
[4] = system: B. cenocepacia biofilms; assay: Disruption of 24 h B. cenocepacia biofilms in vitro (CLSM, COMSTAT average thickness); conditions: 24 h biofilms, 200 nM protein, 16 h
[5] = system: Enterobacter spp biofilms; assay: Disruption of 24 h Enterobacter spp biofilms in vitro (CLSM, COMSTAT average thickness); conditions: 24 h biofilms, 200 nM protein, 16 h
[6] = system: biofilms formed by UPEC, B. cenocepacia, NTHI, Enterobacter spp, S. aureus, K. pneumoniae, A. baumanii, P. aeruginosa, E. faecium; assay: Disruption of 24 h bacterial biofilms in vitro by HMGB1 isoforms (LIVE/DEAD stain, CLSM, COMSTAT average thickness); conditions: 24 h biofilms of nine pathogens; 200 nM protein, 16 h (S. aureus 800 nM rHMGB1; E. faecium 800 nM, 1 h)

B1: IHF: the DNABII protein IHF (protein)
chain 1: MATITKLDIIEYLSDKYHLSKQDTKNVVENFLEEIRLSLESGQDVKLSGFGNFELRDKSSRPGRNPKTGDVVPVSARRVVTFKPGQKLRARVEKTK
chain 2: MTKSELMEKLSAKQPTLPAKEIENMVKGILEFISQSLENGDRVEVRGFGSFSLHHRQPRLGRNPKTGDSVNLSAKSVPYFKAGKELKARVDVQA
- HJ DNA-protein complex at room temperature (RT) [1]: bound to HJ DNA to form stable complexes at RT

B2: Ox-rHMGB1: rHMGB1 oxidized with hydrogen peroxide (protein, UniProt P09429 1-215, looked up)
High mobility group protein B1: MGKGDPKKPRGKMSSYAFFVQTCREEHKKKHPDASVNFSEFSKKCSERWKTMSAKEKGKFEDMAKADKARYEREMKTYIPPKGETKKKFKDPNAPKRPPSAFFLFCSEYRPKIKGEHPGLSIGDVAKKLGEMWNNTAADDKQPYEKKAAKLKEKYEKDIAAYRAKGKPDAAKKGVVKAEKSKKKKEEEEDEEDEEDEEEEEDEEDEDEEEDDDDE
modifications: oxidized with hydrogen peroxide
- biofilm average thickness / anti-biofilm activity, UPEC [2]: lost its anti-biofilm effect as compared to rHMGB1
- biofilm average thickness / anti-biofilm activity, UPEC ([2]; listed as ox-rHMGB1): significantly reduced upon oxidation

B3: Ac-rHMGB1: acetylated isoform of rHMGB1 (protein, UniProt P09429 1-215, looked up)
High mobility group protein B1: MGKGDPKKPRGKMSSYAFFVQTCREEHKKKHPDASVNFSEFSKKCSERWKTMSAKEKGKFEDMAKADKARYEREMKTYIPPKGETKKKFKDPNAPKRPPSAFFLFCSEYRPKIKGEHPGLSIGDVAKKLGEMWNNTAADDKQPYEKKAAKLKEKYEKDIAAYRAKGKPDAAKKGVVKAEKSKKKKEEEEDEEDEEDEEEEEDEEDEDEEEDDDDE
modifications: acetylated
- biofilm average thickness / anti-biofilm activity, K. pneumoniae [3]: significantly disrupted biofilms
- biofilm average thickness / anti-biofilm activity, B. cenocepacia [4]: significantly disrupted biofilms
- biofilm average thickness / anti-biofilm activity, Enterobacter spp [5]: significantly disrupted biofilms

B4: RuvA: the prototypic HJ DNA binding protein (protein, UniProt P0A809 1-203, looked up)
Holliday junction branch …: MIGRLRGIIIEKQPPLVLIEVGGVGYEVHMPMTCFYELPEAGQEAIVFTHFVVREDAQLLYGFNNKQERTLFKELIKTNGVGPKLALAILSGMSAQQFVNAVEREEVGALVKLPGIGKKTAERLIVEMKDRFKGLHGDLFTPAADLVLTSPASPATDDAEQEAVAALVALGYKPQEASRMVSKIARPDASSETLIREALRAAL
- HJ DNA-protein complex at room temperature (RT) [1]: bound to HJ DNA to form stable complexes at RT

B5: nHMGB1: native HMGB1 purified from calf thymus, purchased from Chondrex Inc (protein, UniProt P10103 2-215, looked up)
High mobility group protein B1: GKGDPKKPRGKMSSYAFFVQTCREEHKKKHPDASVNFSEFSKKCSERWKTMSAKEKGKFEDMAKADKARYEREMKTYIPPKGETKKKFKDPNAPKRPPSAFFLFCSEYRPKIKGEHPGLSIGDVAKKLGEMWNNTAADDKQPYEKKAAKLKEKYEKDIAAYRAKGKPDAAKKGVVKAEKSKKKKEEEEDEEDEEDEEEEEDEEDEEEEEDDDDE
- biofilm average thickness / anti-biofilm activity, UPEC [2]: equivalent to that of rHMGB1
- biofilm average thickness / anti-biofilm activity, B. cenocepacia [4]: equivalent to that of rHMGB1
- biofilm average thickness compared to control [6]: significantly disrupted bacterial biofilms
